Measured values taken from patent US20230123187A1.

Biological target: Apolipoprotein E receptor-2 (Apoer2) (human) (UniProt Q14114)
Test: cell-based or functional assay

UniProt Q14114, sequence (Q14114 33-963): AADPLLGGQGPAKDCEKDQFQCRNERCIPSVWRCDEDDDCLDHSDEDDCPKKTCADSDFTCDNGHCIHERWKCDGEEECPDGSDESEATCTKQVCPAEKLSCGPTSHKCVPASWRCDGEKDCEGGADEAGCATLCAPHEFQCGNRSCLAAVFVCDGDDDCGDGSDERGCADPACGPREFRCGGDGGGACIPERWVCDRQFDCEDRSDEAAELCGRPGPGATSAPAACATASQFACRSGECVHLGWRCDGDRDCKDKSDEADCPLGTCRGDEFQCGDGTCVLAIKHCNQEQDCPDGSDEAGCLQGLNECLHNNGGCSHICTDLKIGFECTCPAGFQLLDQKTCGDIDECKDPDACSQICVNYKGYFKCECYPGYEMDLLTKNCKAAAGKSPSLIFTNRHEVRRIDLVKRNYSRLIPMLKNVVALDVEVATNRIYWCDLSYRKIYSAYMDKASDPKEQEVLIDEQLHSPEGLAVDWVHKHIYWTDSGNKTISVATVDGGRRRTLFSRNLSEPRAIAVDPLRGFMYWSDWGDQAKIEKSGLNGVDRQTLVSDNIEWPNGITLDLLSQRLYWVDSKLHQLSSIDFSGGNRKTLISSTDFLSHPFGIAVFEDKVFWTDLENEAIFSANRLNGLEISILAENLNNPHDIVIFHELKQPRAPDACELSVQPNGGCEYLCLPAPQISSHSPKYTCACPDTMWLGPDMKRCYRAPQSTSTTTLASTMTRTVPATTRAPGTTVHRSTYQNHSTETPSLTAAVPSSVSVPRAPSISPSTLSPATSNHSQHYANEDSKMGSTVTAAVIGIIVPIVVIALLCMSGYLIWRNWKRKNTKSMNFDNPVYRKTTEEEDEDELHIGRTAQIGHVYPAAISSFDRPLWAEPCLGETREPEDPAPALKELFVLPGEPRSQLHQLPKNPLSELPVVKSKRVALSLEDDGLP

- U937 monocyte adhesion to HAEC monolayers: > 2 fold
Substance: Recombinant Reelin (ligand)
